The text below walks through data of patent US20090082262A1 (published 2009).

*: point of attachment. Nonanoyl = CCCCCCCCC(=O)*

The target in assay [1] is T1, chemokine receptor 5 (CCR5) (human, UniProt P51681 1-352).
T1 construct: whole, on cells
Kind of assay: competition with [125I]-MIP-β1, CHO-K1 membranes. The protocol: (§1) For determination of its binding properties, CHO-K1 cells were used which were stably transfected with the chemokine receptors CCR1, CCR3, CCR5. Therefore, crude membrane extracts prepared from the CHO-K1 cell lines expressing the various GPC were used in radioligand binding assays. Competition binding assays were performed in Minisorp tubes (Nunc, Roskilde, Denmark) in a total volume of 100 μl containing 0.1 nM iodinated ligand as tracer, variable concentrations of competitors and defined amount of membranes. Total binding was measured in the absence of competitor and non-specific binding was measured with a 100-fold excess, of unlabelled ligand. Samples were incubated for 90 minutes at 25° C. then filtered through GF/B filters presoaked in 0.3% polyethylenenimine. Filters were counted in a gamma scintillation counter (Packard). Binding parameters were determined with the PRISM software (Graphpad software, San Diego, Calif.) using non-linear regression applied to a one site competition model.
FIG. 6 represents the compound PHC-1, full size HCC-1 and reference chemokines tested on CCR1, CCR3 and CCR5. Competition binding assays were performed with [¹²⁵I]-RANTES for CCR1, [¹²⁵I]-Eotaxin for CCR3 and [¹²⁵I]-MIP-1, for CCR5. PHC-1, HCC1, MIP-1, RANTES, Eotaxin and MCP-4 were used as competitors. FIGS. 3 and 4 show the binding of additional chemokine compounds of the invention to the CCR5 and CCR1 respectively. Competition assays were performed with [¹²⁵I]-MIP-β1 for CCR5, and [¹²⁵I]-MIP-α1 for CCR1. Each of the chemokine compounds tested was capable of binding both the CCR5 and CCR1 receptors.

The target in assay [2] is T1, chemokine receptor 5 (CCR5). Kind of assay: radioligand competition binding as in Example 4. Here is the method:
as §1
FIG. 6 represents the compound PHC-1, full size HCC-1 and reference chemokines tested on CCR1, CCR3 and CCR5. Competition binding assays were performed with [¹²⁵I]-RANTES for CCR1, [¹²⁵I]-Eotaxin for CCR3 and [¹²⁵I]-MIP-1, for CCR5. PHC-1, HCC1, MIP-1, RANTES, Eotaxin and MCP-4 were used as competitors. […]
In general terms: Loss of bound radioactivity is the signal in a displacement assay; it reports binding, not function.

For assay [3], the target named is T2, chemokine receptor 1 (CCR1) (UniProt P56482 1-355). Kind of assay: competition with 0.1 nM 125I-Rantes, membranes of CHO-K1 cells expressing CCR1, filtration.
T2 sequence (P56482 whole entry): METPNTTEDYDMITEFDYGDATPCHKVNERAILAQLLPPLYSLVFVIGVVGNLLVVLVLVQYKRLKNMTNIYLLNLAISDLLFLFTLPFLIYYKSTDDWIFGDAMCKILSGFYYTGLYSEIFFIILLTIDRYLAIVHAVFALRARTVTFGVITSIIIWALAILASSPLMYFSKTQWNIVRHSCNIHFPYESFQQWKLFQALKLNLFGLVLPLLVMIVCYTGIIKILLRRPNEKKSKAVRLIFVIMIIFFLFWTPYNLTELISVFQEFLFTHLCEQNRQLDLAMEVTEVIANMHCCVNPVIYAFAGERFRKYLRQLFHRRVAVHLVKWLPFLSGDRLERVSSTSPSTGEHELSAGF
In assay [4] the target is T3, chemokine receptor CCR3 (UniProt P51677 1-355, limits assumed).
T3 construct: whole, on cells
T3 sequence (looked up): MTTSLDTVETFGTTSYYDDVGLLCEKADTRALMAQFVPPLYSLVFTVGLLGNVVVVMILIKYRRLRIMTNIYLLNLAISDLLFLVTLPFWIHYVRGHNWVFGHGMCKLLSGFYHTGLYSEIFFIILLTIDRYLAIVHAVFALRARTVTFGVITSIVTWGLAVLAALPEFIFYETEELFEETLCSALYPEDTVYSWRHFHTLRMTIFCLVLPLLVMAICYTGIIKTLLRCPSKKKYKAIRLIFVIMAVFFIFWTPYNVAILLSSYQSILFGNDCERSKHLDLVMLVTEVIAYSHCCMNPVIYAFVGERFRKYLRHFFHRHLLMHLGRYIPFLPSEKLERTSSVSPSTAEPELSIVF
Description: competition with 0.1 nM 125I-Eotaxin, membranes of CHO-K1 cells expressing CCR3, filtration. The protocol: as §1
The processed chemokine PHC-1 was a strong competitor of ¹²⁵I-Rantes binding to CCR1 with half-maximal inhibitory concentration of 2.3±0.7 nM. (Ki±SEM).

The target in assay [5] is T2, chemokine receptor 1 (CCR1). Kind of assay: competition with 125I-Rantes binding to CCR1.
Assay [6] has the same target. Description: radioligand competition binding on CCR1.

T1 sequence (P51681 whole entry): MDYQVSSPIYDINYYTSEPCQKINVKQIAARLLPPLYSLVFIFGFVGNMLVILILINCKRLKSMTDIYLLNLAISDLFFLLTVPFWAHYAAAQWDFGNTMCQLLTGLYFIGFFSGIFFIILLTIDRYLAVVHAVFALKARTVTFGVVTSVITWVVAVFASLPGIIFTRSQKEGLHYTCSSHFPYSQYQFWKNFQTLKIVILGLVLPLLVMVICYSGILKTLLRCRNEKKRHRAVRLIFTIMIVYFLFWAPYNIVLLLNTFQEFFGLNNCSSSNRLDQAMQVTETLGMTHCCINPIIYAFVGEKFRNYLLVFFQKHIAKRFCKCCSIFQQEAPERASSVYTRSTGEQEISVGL

B1: HCC-1[7-74] (ligand)
chain: SRGPYHPSECCFTYTTYKIPRQRIMDYYETNSQCSKPGIVFITKRGHSVCTNPSDKWVQDYIKDMKEN
notes: Synthetic, oxidatively folded
For B1, the binding result in assay [1] is “binds”.

B2: NNY-HCC-1[10-74] (ligand)
chain: Nonanoyl-PYHPSECCFTYTTYKIPRQRIMDYYETNSQCSKPGIVFITKRGHSVCTNPSDKWVQDYIKDMKEN
modifications: ends and bridges not checked
notes: An N-terminally modified analog of HCC-1[10-74]; also called nonanoyl-HCC-1[10-74]
In the case of B2, the binding result in assay [2] was “binds”.

B3: HCC-1[10-74] (ligand)
chain: PYHPSECCFTYTTYKIPRQRIMDYYETNSQCSKPGIVFITKRGHSVCTNPSDKWVQDYIKDMKEN
notes: Synthetic, oxidatively folded
Regarding B3, the binding result in assay [1] is given as “binds”.

B4: HCC-1[8-74] (ligand)
chain: RGPYHPSECCFTYTTYKIPRQRIMDYYETNSQCSKPGIVFITKRGHSVCTNPSDKWVQDYIKDMKEN
notes: Synthetic, oxidatively folded
Regarding B4, the binding result in assay [1] is “binds”.

B5: PHC-1 (HCC-1[9-74]) (ligand)
chain: GPYHPSECCFTYTTYKIPRQRIMDYYETNSQCSKPGIVFITKRGHSVCTNPSDKWVQDYIKDMKEN
notes: Purified from human hemofiltrate or made by tryptic digestion of HCC-1 1-74; also called processed chemokine PHC-1; HCC-1, residues 9-74
Broadly, the IC50 is the concentration needed to halve the response being measured. The low end stands for higher potency, the high end for lower potency. By Ki is commonly meant the equilibrium dissociation constant of an inhibitor or competing ligand from its target. Low values mean tighter binding, high ones weaker binding. For B5, the IC50 is 2.3 nM in assay [3] and 78 nM in assay [4]. In assay [5], the Ki was determined as 23000 nM.

B6: HCC-1[11-74] (ligand)
chain: YHPSECCFTYTTYKIPRQRIMDYYETNSQCSKPGIVFITKRGHSVCTNPSDKWVQDYIKDMKEN
notes: Synthetic, oxidatively folded
As for B6, the binding result in assay [1] is listed as “binds”.

B7: full size HCC-1 (HCC-1, residues 1-74) (ligand)
chain: TKTESSSRGPYHPSECCFTYTTYKIPRQRIMDYYETNSQCSKPGIVFITKRGHSVCTNPSDKWVQDYIKDMKEN
notes: The 74-residue chemokine, Mr 8673; also called full-length HCC-1; HCC-1, 1-74
B7 showed a Ki in assay [6] of 100 nM. This lies in the sub-micromolar range.
